Laboratory results: the supplement of paper PMC7877785
± gives the uncertainty stated by the source.

Assay: self-splicing fitness, log relative to wild type (ln ratio); higher = more splicing; Tetrahymena group I intron in knt gene, E. coli kanamycin selection, DiMSum; sequences stand for … in CUCUCU…GGAGGGAAAAGUUAUCAGGCAUGCACCUGGUAGCUAGUCUUUAAACCAAUAGAUUGCAUCGGUUUAAAAGGCAAGACCGUCAAAUUGCGGGAAAGGGGUCAACAGCCGUUCAGUACCAAGUCUCAGGGGAAACUUUGAGAUGGCCUUGCAAAGGGUAUGGUAAUAAGCUGACGGACAUGGUCCUAACCACGCAGCCAAGUCCUAAGUCAACAGAUCUUCUGUUGAUAUGGAUGCAGUUCACAGACUAAAUGUCGGUCGGGGAAGAUGUAUUCUUCUCAUAAGAUAUAGUCGGACCUCUCCUUAAUGGGAGCUAGCGGAUGAAGUGAUGCAACACUGGAGCCGCUGGGAACUAAUUUGUAUGCGAAAGUAUAUUGAUUAGUUUUGGAGUACUCGUGGUCG
Method in brief: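 The eight P1ex-region nucleotides of an intron in the knt kanamycin-resistance gene on pET-22b(+) were all randomised and the library put into E. coli BL21(DE3). Six replicate transformations were grown overnight at 37°C or 30°C on LB agar with or without 25 μg/mL kanamycin, together with 100 μg/mL carbenicillin, 50 μM IPTG and 0.2% rhamnose. Colonies were pooled and amplicon-sequenced on an Illumina HiSeq 2500. Fitness from DiMSum is the error-weighted combination of wild-type-normalised replicate fold changes, kanamycin over none.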

| Sequence | self-splicing fitness (ln) (30 °C) | self-splicing fitness (ln) (37 °C) |
| --- | --- | --- |
| AGCGAGCAAUAUUACGCGUU | -3.19 ± 0.27 | -2.79 ± 0.32 |
| AGCGAGCAAUAUUACGCUUG | -3.61 ± 0.15 | -1.69 ± 0.15 |
| AGCGAGCAAUAUUACGGAGA | -2.52 ± 0.26 | -2.14 ± 0.3 |
| AGCGAGCAAUAUUACGGGCA | -0.63 ± 0.061 | -0.562 ± 0.075 |
| AGCGAGCAAUAUUACGGGGU | -3.54 ± 0.22 | -1.59 ± 0.19 |
| AGCGAGCAAUAUUACGGUCU | -1.42 ± 0.1 | -0.715 ± 0.15 |
| AGCGAGCAAUAUUACGGUUC | -2.18 ± 0.24 | -2.32 ± 0.3 |
| AGCGAGCAAUAUUACGUACC | -0.987 ± 0.18 | -0.589 ± 0.19 |
| AGCGAGCAAUAUUACGUCAU | -3.13 ± 0.21 | -1.88 ± 0.2 |
| AGCGAGCAAUAUUACGUCGG | -3.45 ± 0.32 | -2.08 ± 0.25 |
| AGCGAGCAAUAUUACGUGCA | -1.78 ± 0.14 | -1.21 ± 0.14 |
| AGCUAGCAAUAUUACGAACC | -0.602 ± 0.14 | -0.082 ± 0.14 |
| AGCUAGCAAUAUUACGAACG | -0.938 ± 0.19 | -1.61 ± 0.18 |
| AGCUAGCAAUAUUACGAAUC | – | -1.56 ± 0.28 |
| AGCUAGCAAUAUUACGAGGU | -2.73 ± 0.14 | -1.31 ± 0.13 |
| AGCUAGCAAUAUUACGAUGU | -1.79 ± 0.096 | -0.235 ± 0.13 |
| AGCUAGCAAUAUUACGCCAG | -3.78 ± 0.36 | -2.27 ± 0.35 |
| AGCUAGCAAUAUUACGCCCU | -0.747 ± 0.13 | 0.627 ± 0.15 |
| AGCUAGCAAUAUUACGCCGA | -1.4 ± 0.4 | – |
| AGCUAGCAAUAUUACGCGCA | -0.216 ± 0.095 | 0.0846 ± 0.13 |
| AGCUAGCAAUAUUACGCGGC | -3.24 ± 0.32 | -1.99 ± 0.38 |
| AGCUAGCAAUAUUACGCUAA | -1.97 ± 0.18 | -1.21 ± 0.12 |
| AGCUAGCAAUAUUACGCUAG | -3.02 ± 0.21 | -2.23 ± 0.22 |
| AGCUAGCAAUAUUACGCUUC | -3.25 ± 0.3 | -2.65 ± 0.28 |
| AGCUAGCAAUAUUACGGAGU | -2.94 ± 0.22 | -2.18 ± 0.24 |
| AGCUAGCAAUAUUACGGAUU | -1.3 ± 0.097 | -1 ± 0.13 |

| Sequence | self-splicing fitness (ln) (30 °C) | self-splicing fitness (ln) (37 °C) |
| --- | --- | --- |
| AGCUAGCAAUAUUACGGGGC | -3.25 ± 0.19 | -2.5 ± 0.21 |
| AGCUAGCAAUAUUACGGGUC | -2.59 ± 0.17 | -1.7 ± 0.15 |
| AGCUAGCAAUAUUACGGGUG | -1.04 ± 0.068 | -0.416 ± 0.087 |
| AGCUAGCAAUAUUACGUACG | -1.85 ± 0.07 | -1.21 ± 0.081 |
| AGCUAGCAAUAUUACGUCAC | – | -2.69 ± 0.29 |
| AGCUAGCAAUAUUACGUCGU | -1.38 ± 0.1 | -1.4 ± 0.14 |
| AGCUAGCAAUAUUACGUGAC | -3.94 ± 0.18 | -1.26 ± 0.13 |
| AGCUAGCAAUAUUACGUGUC | -3.35 ± 0.18 | -1.63 ± 0.14 |
| AGCUAGCAAUAUUACGUUUU | -2.36 ± 0.14 | -2.18 ± 0.16 |
| AGGAAGCAAUAUUACGAACC | -0.283 ± 0.29 | -0.131 ± 0.3 |
| AGGAAGCAAUAUUACGACAC | -1.94 ± 0.12 | -1.74 ± 0.12 |
| AGGAAGCAAUAUUACGACUU | 0.00163 ± 0.064 | -0.239 ± 0.084 |
| AGGAAGCAAUAUUACGAGAU | -4.23 ± 0.26 | -1.1 ± 0.13 |
| AGGAAGCAAUAUUACGAGCA | -1.91 ± 0.17 | -1.7 ± 0.17 |
| AGGAAGCAAUAUUACGAUAA | -1.9 ± 0.21 | -1.33 ± 0.29 |
| AGGAAGCAAUAUUACGAUGA | -0.649 ± 0.13 | -0.773 ± 0.17 |
| AGGAAGCAAUAUUACGCGAG | -1.55 ± 0.13 | -1.31 ± 0.15 |
| AGGAAGCAAUAUUACGCGCG | -0.598 ± 0.21 | -0.0648 ± 0.26 |
| AGGAAGCAAUAUUACGCGGA | -2.32 ± 0.22 | -1.29 ± 0.17 |
| AGGAAGCAAUAUUACGCGUC | -3.99 ± 0.33 | -2.24 ± 0.24 |
| AGGAAGCAAUAUUACGCUGC | -3.38 ± 0.43 | – |
| AGGAAGCAAUAUUACGGCGA | -0.209 ± 0.097 | -0.301 ± 0.13 |
| AGGAAGCAAUAUUACGGCUG | -0.459 ± 0.13 | -0.0568 ± 0.15 |
| AGGAAGCAAUAUUACGGGUC | -3 ± 0.32 | -2.31 ± 0.29 |
| AGGAAGCAAUAUUACGGUCA | -0.983 ± 0.086 | 0.202 ± 0.091 |
| AGGAAGCAAUAUUACGGUCG | -0.601 ± 0.1 | 0.213 ± 0.14 |

| Sequence | self-splicing fitness (ln) (30 °C) | self-splicing fitness (ln) (37 °C) |
| --- | --- | --- |
| AGGAAGCAAUAUUACGGUGA | -2.15 ± 0.09 | -1.23 ± 0.088 |
| AGGAAGCAAUAUUACGGUUU | -2.13 ± 0.085 | -0.557 ± 0.1 |
| AGGAAGCAAUAUUACGUACA | -1.08 ± 0.065 | -0.404 ± 0.088 |
| AGGAAGCAAUAUUACGUACU | -1.76 ± 0.12 | -0.989 ± 0.19 |
| AGGAAGCAAUAUUACGUAGC | – | -1.62 ± 0.28 |
| AGGAAGCAAUAUUACGUGAA | -2.53 ± 0.35 | -1.97 ± 0.24 |
| AGGAAGCAAUAUUACGUUAA | -3.22 ± 0.18 | -1.72 ± 0.12 |
| AGGAAGCAAUAUUACGUUUC | -3.65 ± 0.33 | -1.86 ± 0.36 |
| AGGCAGCAAUAUUACGAAGA | -1.96 ± 0.29 | -1.12 ± 0.18 |
| AGGCAGCAAUAUUACGAAUG | -1.83 ± 0.17 | -1.73 ± 0.2 |
| AGGCAGCAAUAUUACGACCC | -0.357 ± 0.31 | -0.702 ± 0.5 |
| AGGCAGCAAUAUUACGACCG | 0.153 ± 0.071 | 0.0303 ± 0.085 |
| AGGCAGCAAUAUUACGACGU | -0.0258 ± 0.11 | 0.539 ± 0.087 |
| AGGCAGCAAUAUUACGAGGC | -3.43 ± 0.29 | -1.67 ± 0.22 |
| AGGCAGCAAUAUUACGAGUG | -3.63 ± 0.28 | -1.96 ± 0.18 |
| AGGCAGCAAUAUUACGAUAA | -1.82 ± 0.11 | -2.3 ± 0.16 |
| AGGCAGCAAUAUUACGAUUG | -3.13 ± 0.17 | -2.4 ± 0.22 |
| AGGCAGCAAUAUUACGCUUG | -2.81 ± 0.17 | -2.12 ± 0.23 |
| AGGCAGCAAUAUUACGGCAG | -1.29 ± 0.1 | -0.578 ± 0.12 |
| AGGCAGCAAUAUUACGGGCC | -2.17 ± 0.29 | -1.52 ± 0.26 |
| AGGCAGCAAUAUUACGGGGA | – | -3.03 ± 0.23 |
| AGGCAGCAAUAUUACGGUAC | -3.68 ± 0.21 | -2.65 ± 0.2 |
| AGGCAGCAAUAUUACGGUGU | -2.38 ± 0.13 | -1.73 ± 0.15 |
| AGGCAGCAAUAUUACGUAAA | -2 ± 0.085 | -0.673 ± 0.099 |
| AGGCAGCAAUAUUACGUAUC | -2.26 ± 0.16 | -0.296 ± 0.12 |
